This note sets out measurements from publication PMC3858555.

The assay has as its target CIN85 of MDCK cells (dog (endogenous in MDCK)). Put plainly: co-IP; whole cell lysates (RIPA), 500 μg; precipitated with anti-CIN85 antibody, blotted with anti-MUC1 (3C6, Ab5) or anti-Tac; washed with RIPA containing 0.5 M NaCl, 2% SDS; control unrelated IgG; intensity by Image J.

Substance “full-length MUC1 containing 22 tandem repeats in the VNTR domain (natural protein)” showed a fold co-precipitation against the construct lacking the cytoplasmic tail (22TR-Tac) of 1.9 fold and a fold co-precipitation against the construct lacking the extracellular domain (Tac-CT) of 2.4 fold.
